Key:
[1] = target: GST-WASP(201–321) wild type (UniProt P42768); experiment: scintillation proximity assay (SPA); 5 nM GST-WASP variant immobilised on protein A SPA fluoromicrospheres via an anti-GST antibody; varying concentrations of [3H]GTP·Cdc42; direct binding isotherm; apparent Kd; low-salt buffer
[2] = target: GST-WASP(201–321) K225A/K226A/R227A/K230A/K231A/K232A (UniProt P42768); experiment: as above
[3] = target: GST-WASP(201–321) K225A/R227A (UniProt P42768); experiment: as above
[4] = target: GST-WASP(201–321) K226A/R227A (UniProt P42768); experiment: as above
[5] = target: GST-WASP(201–321) K225A (UniProt P42768); experiment: as above
[6] = target: GST-WASP(201–321) R227A (UniProt P42768); experiment: as above
[7] = target: GST-WASP(201–321) K230A/K231A/K232A (UniProt P42768); experiment: as above
[8] = target: GST-WASP(201–321) K225A/K226A/R227A (UniProt P42768); experiment: as above
[9] = target: GST-WASP(201–321) K231A (UniProt P42768); experiment: as above
[10] = target: GST-WASP(201–321) K226A (UniProt P42768); experiment: as above
[11] = target: GST-WASP(201–321) K231A/K232A (UniProt P42768); experiment: as above
[12] = target: GST-WASP(201–321) K225A/K226A (UniProt P42768); experiment: as above
[13] = target: GST-WASP(201–321) K232A (UniProt P42768); experiment: as above
[14] = target: GST-WASP(201–321) K230A/K232A (UniProt P42768); experiment: as above
[15] = target: GST-WASP(201–321) K230A/K231A (UniProt P42768); experiment: as above
[16] = target: GST-WASP(201–321) K230A (UniProt P42768); experiment: as above
[17] = target: GST-WASP(201–321) K231A (UniProt P42768); experiment: BLI; Octet Red; GST-WASP variants loaded on anti-GST sensors (10 μg/ml), dipped into a dilution range of Cdc42·GMPPNP; 50 mM Tris-HCl pH 7.5, 150 mM NaCl, 1 mM MgCl2, 0.02% Tween 20, 0.1% BSA, 0.05% sodium azide, 25 °C; GST-alone sensors subtracted
[18] = target: GST-WASP(201–321) K232A (UniProt P42768); experiment: as above

Cdc42 Δ7 Q61L (from UniProt P60953 1-191) (natural protein)
Kd [1]: 0.5 µM
Kd [2]: 98.6 µM
Kd [3]: 7.5 µM
Kd [4]: 5.7 µM
Kd [5]: 2.8 µM
Kd [6]: 4.3 µM
Kd [7]: 36 µM
Kd [8]: 8.8 µM
Kd [9]: 12.4 µM
Kd [10]: 5.4 µM
Kd [11]: 21.7 µM
Kd [12]: 7.4 µM
Kd [13]: 12.2 µM
Kd [14]: 18.4 µM
Kd [15]: 12.9 µM
Kd [16]: 9.7 µM
Kd [17]: 0.0896 µM
koff [17]: 0.0438 s⁻¹
kon [17]: 509000 M⁻¹ s⁻¹
Kd [18]: 0.134 µM
koff [18]: 0.0546 s⁻¹
kon [18]: 407000 M⁻¹ s⁻¹
